Changes are numbered by the printed parent chain. Names may count otherwise.

For one data set, the target named is HNF-1A DBD R263C (Homo sapiens, UniProt P20823 83-279, R263C). The data set can be described thus: ITC.
A further data set addresses HNF-1A DD-DBD N266S (Homo sapiens, UniProt P20823 1-279, N266S). As to the kind of experiment: ITC.
The target of another data set is HNF-1A DBD N266S (Homo sapiens, UniProt P20823 83-279, N266S). The data set can be described thus: ITC.
The next data set deals with HNF-1A DD-DBD R263C (Homo sapiens, UniProt P20823 1-279, R263C). As to the kind of experiment: ITC. For orientation: In ITC the heat of successive injections is recorded.
The data set “SEC-MALS” deals with the molecule itself. The data set can be described thus: SEC-MALS. Background: In gel filtration, larger molecules generally elute earlier.

Chain of HNF-1A DBD R263C (P20823 83-279 R263C): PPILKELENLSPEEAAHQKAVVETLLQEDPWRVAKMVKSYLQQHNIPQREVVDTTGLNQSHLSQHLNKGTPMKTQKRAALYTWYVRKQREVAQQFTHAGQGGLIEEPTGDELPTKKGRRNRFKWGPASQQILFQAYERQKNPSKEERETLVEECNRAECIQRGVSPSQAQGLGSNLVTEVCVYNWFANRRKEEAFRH
Chain of HNF-1A DD-DBD N266S (P20823 1-279 N266S): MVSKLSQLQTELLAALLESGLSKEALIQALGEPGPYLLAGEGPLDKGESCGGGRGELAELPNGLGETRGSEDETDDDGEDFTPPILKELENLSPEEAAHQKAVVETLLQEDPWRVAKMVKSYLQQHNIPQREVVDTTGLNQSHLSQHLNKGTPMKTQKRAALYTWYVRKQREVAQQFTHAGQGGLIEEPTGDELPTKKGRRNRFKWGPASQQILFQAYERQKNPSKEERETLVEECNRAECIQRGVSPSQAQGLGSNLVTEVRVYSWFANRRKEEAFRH
Chain of HNF-1A DBD N266S (P20823 83-279 N266S): as the sequence (P20823 83-279 R263C) above, with C181R, N184S counted along it

B1: RA (rat albumin promoter oligonucleotide), unlabeled (dsDNA)
DNA 1: CTTGGTTAATAATTCACCAGA
DNA 2: TCTGGTGAATTATTAACCAAG
As for B1, the Kd (usually the free concentration of one partner at which half of the binding sites on the other are occupied at equilibrium, for simple one-to-one binding) with HNF-1A DBD R263C worked out at 2000 ± 140 nM; with HNF-1A DD-DBD N266S it was 740 ± 110 nM; with HNF-1A DBD N266S it was 570 ± 50 nM; with HNF-1A DD-DBD R263C, 8000 ± 3000 nM.

B2: HNF-1A DD-DBD (hepatocyte nuclear factor 1A, residues 1-279, WT) (domain or fragment, human, UniProt P20823 1-279, looked up)
chain: MVSKLSQLQTELLAALLESGLSKEALIQALGEPGPYLLAGEGPLDKGESCGGGRGELAELPNGLGETRGSEDETDDDGEDFTPPILKELENLSPEEAAHQKAVVETLLQEDPWRVAKMVKSYLQQHNIPQREVVDTTGLNQSHLSQHLNKGTPMKTQKRAALYTWYVRKQREVAQQFTHAGQGGLIEEPTGDELPTKKGRRNRFKWGPASQQILFQAYERQKNPSKEERETLVEECNRAECIQRGVSPSQAQGLGSNLVTEVRVYNWFANRRKEEAFRH
Regarding B2, the stoichiometry N – broadly, the number of molecules, sites or subunits per partner or assembly – in the data set “SEC-MALS” came to 2.

B3: HNF-1A DD-DBD/N266S (residues 1-279, variant p.Asn266Ser) (domain or fragment, human, UniProt P20823 1-279, looked up)
chain: B2 chain with N266S
For the molecule B3, in “SEC-MALS”, the binding result was “binds”.

B4: HNF-1A DD-DBD/R263C (residues 1-279, MODY3 variant p.Arg263Cys) (domain or fragment, human, UniProt P20823 1-279, looked up)
chain: B2 chain with R263C
Consider B4, for which the “stoichiometry N” value in the data set “SEC-MALS” turned out to be 2.

These data come from PMC8988010 (The Journal of Biological Chemistry, 2021).
